In article PMC11435836 (Vaccines, 2024):

Molecular target: the molecule itself
Assay: SEC; Superose 6 Increase 10/300 GL; single ENC particles eluted at 11-12 mL, highly aggregated particles at 8-9 mL

B1: encapsulin (ENC) from Thermotoga maritima (natural protein, UniProt Q9WZP2 1-264, looked up)
chain: MEFLKRSFAPLTEKQWQEIDNRAREIFKTQLYGRKFVDVEGPYGWEYAAHPLGEVEVLSDENEVVKWGLRKSLPLIELRATFTLDLWELDNLERGKPNVDLSSLEETVRKVAEFEDEVIFRGCEKSGVKGLLSFEERKIECGSTPKDLLEAIVRALSIFSKDGIEGPYTLVINTDRWINFLKEEAGHYPLEKRVEECLRGGKIITTPRIEDALVVSERGGDFKLILGQDLSIGYEDREKDAVRLFITETFTFQVVNPEALILLK
notes: also called ENC NPs; ENC PNPs; copies: 60
  binding result: binds
